According to the supplement of paper PMC10567573:
± gives the standard deviation.

Assay: protein stability index of a GFP-peptide fusion (GPS, HEK-293T) (PSI 1-6); higher = more stable
[1] = treatment: DMSO, c terminus: a fixed tail appended
[2] = treatment: MLN4924 1 uM, 8 h, c terminus: a fixed tail appended
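Note: 24-mer peptide tiles fused after GFP, lentivirally expressed, FACS-sorted into six equal bins by GFP/DsRed ratio, decoded by Illumina sequencing, PSI is the read-weighted mean bin number.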

Sequence | protein stability index [1] | protein stability index [2] | protein stability index (treatment: DMSO, c terminus: native) | protein stability index (treatment: MLN4924 1 uM, 8 h, c terminus: native)
FQKSHNSLQRWEHLKKVASRYQNN [PRIM1] | 2.46 ± 0.42 | 2.9 ± 0.13 | – | –
CENFPEMATYLRYVRRLDFFEKPD [CSNK1G3] | 2.21 ± 0.25 | 2.59 ± 0.51 | – | –
PSEHVQGKSPVNMVTVAMVAGQCE [ZNF649] | 4.14 ± 0.34 | 4.26 ± 0.14 | – | –
NREHLVMMEKILGPIPSHMIHRTR [CLK3] | 2.79 ± 0.34 | 2.89 ± 0.33 | – | –
EKMEEEEQTCDPDSSLHWSSSYSP [ZNF396] | 5.3 ± 0.32 | 5.56 ± 0.065 | – | –
PLPTDPMLGLALGGLVVSAASLAG [TSPAN10] | 2.96 ± 0.63 | 2.65 ± 0.63 | – | –
LQMEFKAVQQVQRLPFLSSSNLSL [POMP] | 2.15 ± 0.22 | 2.16 ± 0.17 | – | –
AMPMQDIKMILKMVQLDSIEDLEV [PRAME] | 2.25 ± 0.22 | 2.25 ± 0.59 | – | –
QLGTLAGSKYYNVEAMYCYLRCIQ [SMG5] | 2.68 ± 0.29 | 2.3 ± 0.41 | – | –
FLGGVVRMTISLTVILIESTNEIT [CLCN6] | 3.41 ± 0.43 | 3.42 ± 0.19 | – | –
PPVPCVPSVPCTPAPQVGTQIRTI [KRT36] | 4.46 ± 0.22 | 4.31 ± 0.2 | – | –
QIFFGRRKDMIAEKLAPSEITEEL [ZNF396] | 3.85 ± 0.14 | 3.74 ± 0.13 | – | –
TLGGELGALEALELSPPLSPASHV [FOXJ1] | 4.12 ± 0.3 | 4.26 ± 0.098 | – | –
GPPPGAPHTPQTPGQGGPASTPAQ [NR2F2] | 5.34 ± 0.18 | 5.34 ± 0.16 | – | –
GKTPTVRAALICLTLVLVASVLLQ [CD207] | 3.17 ± 0.16 | 3.11 ± 0.76 | – | –
KETAHDLDVKSPPEPRSEVVPARL [RIPK4] | 4.8 ± 1.2 | 4.88 ± 0.86 | – | –
TEPMAWNETADLGLDIGAQGEPLG [CTNNB1] | 5.29 ± 0.23 | 5.25 ± 0.18 | – | –
MASTTTCTRFTDEYQLFEELGKGA [CAMK2D] | 3.74 ± 0.38 | 3.64 ± 0.29 | – | –
RGNHESRQITQVYGFYDECLRKYG [PPP2CA] | 2.75 ± 0.4 | 2.59 ± 0.19 | – | –
ELFEDIVAREYYSEADASHCIQQI [CAMK2B] | 2.8 ± 0.34 | 3.03 ± 0.25 | – | –
RLPCSFVTLALLGSYTVQSELGDY [EPB41L3] | 2.91 ± 0.56 | 2.48 ± 0.35 | – | –
VEVLVDLFLKEGACDELFSYLIEK [PRAME] | 2.55 ± 0.66 | 3.03 ± 0.58 | – | –
ELRVLADTYDSVYLHPNSYSCACL [HDAC6] | 2.03 ± 0.12 | 2.04 ± 0.4 | – | –

Sequence | protein stability index [1] | protein stability index [2] | protein stability index (treatment: DMSO, c terminus: native) | protein stability index (treatment: MLN4924 1 uM, 8 h, c terminus: native)
SLKVKFFDLERENACATKEQKNHT [PLD5] | 4 ± 0.36 | – | – | –
FICKECGKAYGWCSELIRHRRVHA [ZNF232] | 3.38 ± 0.3 | 3.73 ± 0.33 | – | –
DSLEKTDDDKYKITLKYPHYFPVM [NLN] | 2.73 ± 0.27 | 2.7 ± 0.28 | – | –
LQKDEYRPDKALSEGDLKNAIRVH [PSD2] | 4.56 ± 0.055 | 4.58 ± 0.16 | – | –
SQVSYFTYIPENNARGASIFSVTA [PCDHGA10] | 2.29 ± 0.56 | 2.39 ± 0.54 | – | –
TTLGPKLASQALTPPPGPASAQPL [TFE3] | 4.4 ± 0.48 | 4.4 ± 0.18 | – | –
NATAPRSPSHSPEHRRTARRTPPG [ELOA2] | 5 ± 0.15 | 5.2 ± 0.36 | – | –
DFGFAILGFAYAKEDKIMLDDRKN [MIA2] | 2.05 ± 0.26 | 2.16 ± 0.48 | – | –
VEGKGNGIKTVIVNMVDVAKALNR [EIF5] | 2.14 ± 0.21 | 2.22 ± 0.31 | – | –
IDSHLLLSVLPQLEFKLKSNDNEE [PDS5B] | 3.32 ± 0.27 | 3.09 ± 0.096 | – | –
PRCPRMVLSLKEGAREEDLDAVEA [FBXO3] | 5.32 ± 0.36 | 5.27 ± 0.17 | – | –
VTPEAKNLINQMLTINPAKRITAH [CAMK2B] | 2.8 ± 0.14 | 2.95 ± 0.3 | – | –
HIFPASRWEPYDPEKKWDKYTIR [FAM50A] | – | – | 2.82 ± 0.45 | 3.15 ± 0.51
KARVKPPEGYDVVAVYPNAKVELV [PDLIM4] | 3.02 ± 0.18 | 3.31 ± 0.28 | – | –
ERRPVAQSTDGARGKRGYSRGLHA [SPSB2] | 4.52 ± 0.11 | 4.58 ± 0.13 | – | –
EKKVLEAGMGKVTSASFGEESTPG [HDAC6] | 5.21 ± 0.23 | 5.18 ± 0.32 | – | –
GRRQRKSEKRRDPPNGPNLPMATV [WASL] | 4.7 ± 0.37 | 4.47 ± 0.13 | – | –
LECEINTYRSLLESEDCKLPCNPC [KRT34] | 3.81 ± 0.16 | 3.94 ± 0.35 | – | –
VGKSLTILGRTFFIYDCDPFTRRY [EFHC1] | 2.47 ± 0.54 | 2.7 ± 0.54 | – | –
KCASDIFQASNPYLPTRGGTTMAS [TRIM55] | 2.89 ± 0.22 | 2.86 ± 0.16 | – | –
PQVLSQEFTELLKVMIHPDPERRP [WEE1] | 3.45 ± 0.17 | 3.43 ± 0.16 | – | –
WFLNALHSALGGTKKKKKTIVTDV [USP39] | 2.6 ± 0.61 | 2.19 ± 0.47 | – | –
HNISHMSMDIARGLMVTCGTDRIV [WDFY1] | 2.26 ± 0.16 | 2.27 ± 0.15 | – | –

Sequence | protein stability index [1] | protein stability index [2] | protein stability index (treatment: DMSO, c terminus: native) | protein stability index (treatment: MLN4924 1 uM, 8 h, c terminus: native)
CGDGNTETHRAPDLVQWTRHMEAV [SOAT2] | 3.55 ± 0.044 | 3.48 ± 0.31 | – | –
LGAQTQFDVKNDRYIVNGSHEANK [EIF5] | 4.8 ± 0.3 | 4.77 ± 0.2 | – | –
YEETGFYEIEIQAEDGGAYLATAK [PCDHGA10] | 3.57 ± 0.14 | 3.72 ± 0.29 | – | –
RVQGGCYRFDSSSCSSEDNLSLVC [DRICH1] | 2.58 ± 0.43 | 2.62 ± 0.32 | – | –
YVPNMLGIIPYAGIDLAVYETLKN [SLC25A25] | 2.87 ± 0.19 | 2.61 ± 0.5 | – | –
PWLCGESFTLADVSLAVTLHRLKF [GDAP1] | 2.65 ± 0.43 | 2.35 ± 0.41 | – | –
SAMAENILAAACESETRKAAKRMR [NOL4L] | 4.32 ± 0.2 | 4.69 ± 0.46 | – | –
EPKNYGSYSTQASAAAATAELLKK [SCAMP3] | 4.84 ± 0.18 | 4.83 ± 0.16 | – | –
KEQDVEKELRDGGEQDTWAGEGAE [NFE2L1] | – | 5.83 ± 0.073 | – | –
AALIYFAISITAIAKYSDGASKAA [CMTM3] | 3.49 ± 0.37 | 3.43 ± 0.62 | – | –
VMAWVKYSIQERRPQLPQVLQHVR [KLHL20] | 2.41 ± 0.37 | 2.04 ± 0.34 | – | –
TGESKEQVANSAFVERVRKRGFEV [HSP90AB1] | 4.18 ± 0.15 | 4.26 ± 0.12 | – | –
LGALHTSSKPTALPSASSAYFPGQ [SASS6] | 3.59 ± 0.29 | 3.67 ± 0.45 | – | –
SLALDIDRDAEDQNRYLDGMVRAH [BET1L] | 4.24 ± 0.17 | 4.39 ± 0.31 | – | –
RRYLEKSIKMGKRNGLHLPEQVQN [NLN] | 3.2 ± 0.42 | 3.23 ± 0.23 | – | –
QVKFGQQNPRQVAQSEAEKKLKKD [ZC3H15] | 5.37 ± 0.25 | 5.37 ± 0.076 | – | –
LNFQIEHHLFPTMPRHNYHKVAPL [FADS1] | 1.98 ± 0.33 | 2.02 ± 0.51 | – | –
WIHCFEGVTAIIFCVALSDYDLVL [GNAI1] | 3.2 ± 0.53 | 3.22 ± 0.24 | – | –
AVYFAEADDPTSGFSSIPDAFWWA [KCNA3] | 2 ± 0.16 | 2.12 ± 0.24 | – | –
PADGWKGERPRSEEDNELNLPNLA [GCH1] | 5.33 ± 0.34 | 5.36 ± 0.35 | – | –
CTSSWDKNLKIWNVHTGEFRNCGA [WDR88] | 2.17 ± 0.42 | 2.56 ± 0.31 | – | –
LVYVAAFSIGLGPMPWLVLSEIFP [SLC2A12] | 3.22 ± 0.44 | 3.19 ± 0.7 | – | –
LCKLFPFLQKSSVGITVLNLCALS [EDNRA] | 2.47 ± 0.18 | 2.72 ± 0.57 | – | –

Sequence | protein stability index [1] | protein stability index [2] | protein stability index (treatment: DMSO, c terminus: native) | protein stability index (treatment: MLN4924 1 uM, 8 h, c terminus: native)
DCGTIQENWVCLSCYQVYCGRYIN [HDAC6] | 2.85 ± 1.1 | 2.39 ± 0.63 | – | –
TLSASSSAGGSRTPAMSSSSSSRV [TFE3] | 4.57 ± 0.46 | 4.96 ± 0.25 | – | –
IESAHRSRIKVLETSYQQREERLR [FBF1] | 3.85 ± 0.15 | 3.82 ± 0.33 | – | –
FLCLQYRLRGKLRAEIENLHRTFD [MOG] | 2.41 ± 0.57 | 2.18 ± 0.39 | – | –
VITALKCHKYDRNIQVTGSAALFY [ZER1] | 2.84 ± 0.18 | 2.85 ± 0.47 | – | –
GSDSVIMTGAYNNFFRMFDRNTKR [PPP2R2C] | 3.22 ± 0.22 | 3.39 ± 0.36 | – | –
SLQLVFGIELMEVDPIGHVYIFAT [MAGEA6] | 2.73 ± 0.21 | 3 ± 0.28 | – | –
PSSLSSSEGSSSSSSSSSSSSSSA [NFE2L1] | 5.51 ± 0.22 | 5.47 ± 0.12 | – | –
QPPLSATVTLTVAVADSIPQVLAD [PCDHGA10] | 2.56 ± 0.24 | 2.7 ± 0.36 | – | –
VEFDVLPAFDALGQLTGGYKPNPQ [OAS1] | 2.85 ± 0.27 | 2.9 ± 0.21 | – | –
WVHKHFTEDIQTRQYRSIEVLIGA [SRPK2] | 2.37 ± 0.18 | 2.27 ± 0.41 | – | –
LLEEEEKQWGPLEREPVRGQCLDS [RTN2] | 5.1 ± 0.3 | 5.26 ± 0.077 | – | –
TKEVMNKYKVHGKEILRTLQDVFC [PPEF2] | 2.63 ± 0.12 | 2.65 ± 0.34 | – | –
QESYENVDSLESHIPSQEVPGTQV [ZNF263] | 5.42 ± 0.22 | 5.28 ± 0.22 | – | –
TFFEVSPLCNFNIIESFTELARIV [RAB40A] | 2.53 ± 0.42 | 2.43 ± 0.28 | – | –
TEFTLGDDKHYGGFTNKQLQSGQE [PTPRD] | 4.91 ± 0.2 | 4.77 ± 0.13 | – | –
TLEEKFSDVHPVALNFMKGCLKMN [CDKL4] | 3.08 ± 0.34 | 3.16 ± 0.27 | – | –
MKLSLGGSEMGLSSHLQSSKAGPT [KLHL13] | 3.79 ± 0.26 | 3.57 ± 0.29 | – | –
TSPAKDSLSFEDFLDLLSVFSDTA [CIB1] | 2.28 ± 0.1 | 2.45 ± 0.27 | – | –
ISSIEAQLSELRSEMECQNQEYKM [KRT13] | 4.76 ± 0.23 | 4.69 ± 0.29 | – | –
